According to patent US20250304690A1 (HANGZHOU VIROMAB BIOTECH, published 2025):
Changes are numbered by the printed parent chain.

B1: BK-D-03 (bispecific antibody, human IgG1, kappa)
heavy: QVQLVQSGAEVKKPGASVKVSCKASGYTFTNYYMKWVKQAPGQRLEWMGDLNPNNGDTFYNQKFKGRVTITVDKSASTAYMELSSLRSEDTAVYYCARTGRYEENAMDYWGQGTLVTVSSASTKGPSVFPLAPSSKSTSGGTAALGCLVKDYFPEPVTVSWNSGALTSGVHTFPAVLQSSGLYSLSSVVTVPSSSLGTQTYICNVNHKPSNTKVDKRVEPKSCDKTHTCPPCPAPEFEGGPSVFLFPPKPKDTLMISRTPEVTCVVVDVSHEDPEVKFNWYVDGVEVHNAKTKPREEQYNSTYRVVSVLTVLHQDWLNGKEYKCKVSNKALPASIEKTISKAKGQPREPQVYTLPPSREEMTKNQVSLTCLVKGFYPSDIAVEWESNGQPENNYKTTPPVLDSDGSFFLYSKLTVDKSRWQQGNVFSCSVMHEALHNHYTQKSLSLSPGKGGGGSGGGGSGGGGSQAVVTQEPSLTVSPGGTVTLTCRSSTGAVTTSNYANWVQQKPGQAPRGLIGGTNKRAPWTPARFSGSLLGGKAALTLSGAQPEDEAEYYCALWYSNLWVFGGGTKLTVLGGGGSGGGGSGGGGSEVQLVESGGGLVQPGGSLRLSCAASGFTFNTYAMNWVRQAPGKGLEWVARIRSKYNNYATYYADSVKDRFTISRDDSKNSLYLQMNSLKTEDTAVYYCVRHGNFGNSYVSWFAYWGQGTLVTVSA
light: DLVMTQSPASLAVSPGQRATITCRASESVDSYGKSFMHWYQLKPGQPPKLLIYRASNLESGVPARFSGSGSRTDFTLTINPVEANDTANYYCQQNNEDPWTFGQGTKLEIKRTVAAPSVFIFPPSDEQLKSGTASVVCLLNNFYPREAKVQWKVDNALQSGNSQESVTEQDSKDSTYSLSSTLTLSKADYEKHKVYACEVTHQGLSSPVTKSFNRGEC
B2: BK-D-04 (bispecific antibody, human IgG1, kappa)
heavy: B1 heavy with T525V, G536D, P547T
light: B1 light with L2I, M4L, L42Q
B3: BK-D-05 (bispecific antibody, human IgG1, kappa)
heavy: B1 heavy with L542I, S543T, P547T, S669I
light: B1 light with L2I, M4L, L42Q
B4: BK-D-06 (bispecific antibody, human IgG1, kappa)
heavy: B1 heavy with Q505E, T525V, G536D, P547T, S669I
light: B1 light with L2I, M4L, L42Q
B5: BK-D-07 (bispecific antibody, human IgG1, kappa)
heavy: B1 heavy with R44S, M48I, R67K, V68A, I70L, S84N, S669I, V684M
light: B1 light with L2I, M4L, L42Q
B6: BK-D-10 (bispecific antibody, human IgG1, kappa)
heavy: B1 heavy with R44S, M48I, R67K, V68A, I70L, S84N
light: B1 light
B7: BK-D-11 (bispecific antibody, human IgG1, kappa)
heavy: B1 heavy
light: B1 light with L2I, M4L, L42Q
B8: BK-D-12 (bispecific antibody, human IgG1, kappa)
heavy: B1 heavy with S669I, V684M
light: B1 light
B9: TT3 Ab-2 (antibody, human IgG1, kappa, V domains shown)
VH: QVQLVQSGAEVKKPGASVKVSCKASGYTFTNYYMKWVKQAPGQSLEWIGDLNPNNGDTFYNQKFKGRVTITVDKSASTAYMELNSLRSEDTAVYYCARTGRYEENAMDYWGQGTLVTVSS
VL: DLVMTQSPASLAVSPGQRATITCRASESVDSYGKSFMHWYQQKPGQPPKLLIYRASNLESGVPARFSGSGSRTDFTLTINPVEANDTANYYCQQNNEDPWTFGQGTKLEIKR
notes: also called humanized anti-TT3 monoclonal antibody
B10: TT3 Ab-1 (antibody, human IgG1, kappa, V domains shown)
VH: B9 VH with S44R, I48M, N84S
VL: B9 VL with L2I, M4L
notes: as for B9
B11: TT3 Ab-3 (antibody, human IgG1, kappa)
heavy: not shown
light: B1 light
notes: as for B9
B12: Ab-TT3 (antibody, V domains shown)
VH: EVQLEQSGPELVKPGASVKMSCKASGYTFTNYYMKWVKQSHGKSLEWIGDLNPNNGDTFYNQKFKGKATLTVDKSSNTAYMQLNSLTSEDSAVYYCARTGRYEENAMDYWGQGTSVTVSS
VL: ELVMTQSPASLAVSLGQRATISCRASESVDSYGKSFMHWYQLKPGQPPKLLIYRASNLESGVPARFSGSGSRTDFTLTIDPVEADDAATYYCQQNNEDPWTFGGGTKLEIK
notes: also called anti-Strep tag II antibody before humanization
B13: BK-B-110 (bispecific antibody)
chain: ELVMTQSPASLAVSLGQRATISCRASESVDSYGKSFMHWYQLKPGQPPKLLIYRASNLESGVPARFSGSGSRTDFTLTIDPVEADDAATYYCQQNNEDPWTFGGGTKLEIKGSTSGSGKPGSGEGSTKGEVQLEQSGPELVKPGASVKMSCKASGYTFTNYYMKWVKQSHGKSLEWIGDLNPNNGDTFYNQKFKGKATLTVDKSSNTAYMQLNSLTSEDSAVYYCARTGRYEENAMDYWGQGTSVTVSSPCPAPEFEGGPSVFLFPPKPKDTLMISRTPEVTCVVVDVSHEDPEVKFNWYVDGVEVHNAKTKPREEQYNSTYRVVSVLTVLHQDWLNGKEYKCKVSNKALPASIEKTISKAKGQPREPQVYTLPPSREEMTKNQVSLTCLVKGFYPSDIAVEWESNGQPENNYKTTPPVLDSDGSFFLYSKLTVDKSRWQQGNVFSCSVMHEALHNHYTQKSLSLSPGKGGGGSGGGGSGGGGSQAVVTQESALTTSPGETVTLTCRSSTGAVTTSNYANWVQEKPDHLFTGLIGGTNKRAPGVPARFSGSLIGDKAALTITGAQTEDEAIYFCALWYSNLWVFGGGTKLTVLGGGGSGGGGSGGGGSEVKLLESGGGLVQPKGSLKLSCAASGFTFNTYAMNWVRQAPGKGLEWVARIRSKYNNYATYYADSVKDRFTISRDDSQSILYLQMNNLKTEDTAMYYCVRHGNFGNSYVSWFAYWGQGTLVTVSA
B14: BK-B-110-hu2 (bispecific antibody)
chain: ELVMTQSPASLAVSLGQRATISCRASESVDSYGKSFMHWYQLKPGQPPKLLIYRASNLESGVPARFSGSGSRTDFTLTIDPVEADDAATYYCQQNNEDPWTFGGGTKLEIKGSTSGSGKPGSGEGSTKGEVQLEQSGPELVKPGASVKMSCKASGYTFTNYYMKWVKQSHGKSLEWIGDLNPNNGDTFYNQKFKGKATLTVDKSSNTAYMQLNSLTSEDSAVYYCARTGRYEENAMDYWGQGTSVTVSSPCPAPEFEGGPSVFLFPPKPKDTLMISRTPEVTCVVVDVSHEDPEVKFNWYVDGVEVHNAKTKPREEQYNSTYRVVSVLTVLHQDWLNGKEYKCKVSNKALPASIEKTISKAKGQPREPQVYTLPPSREEMTKNQVSLTCLVKGFYPSDIAVEWESNGQPENNYKTTPPVLDSDGSFFLYSKLTVDKSRWQQGNVFSCSVMHEALHNHYTQKSLSLSPGKGGGGSGGGGSGGGGSQAVVTQEPSLTVSPGGTVTLTCRSSTGAVTTSNYANWVQQKPGQAPRTLIGGTNKRAPWVPARFSGSLLGDKAALTLSGAQPEDEAEYYCALWYSNLWVFGGGTKLTVLGGGGSGGGGSGGGGSEVQLVESGGGLVQPGGSLRLSCAASGFTFNTYAMNWVRQAPGKGLEWVARIRSKYNNYATYYADSVKDRFTISRDDSKNILYLQMNSLKTEDTAVYYCVRHGNFGNSYVSWFAYWGQGTLVTVSA
B15: BK-B-110-hu1 (bispecific antibody)
chain: B14 chain with V544T, D555G
B16: BK-B-110-hu3 (bispecific antibody)
chain: B14 chain with Q524E
B17: BK-B-110-hu4 (bispecific antibody)
chain: B14 chain with V544T, D555G, V703M
B18: BK-B-110-hu5 (bispecific antibody)
chain: B14 chain with V703M
B19: BK-B-110-hu6 (bispecific antibody)
chain: B14 chain with Q524E, V703M

Target: TT3 labeling polypeptide on cells
Sequence (P01732 other isoform, or with tags, fused parts or gaps limits assumed): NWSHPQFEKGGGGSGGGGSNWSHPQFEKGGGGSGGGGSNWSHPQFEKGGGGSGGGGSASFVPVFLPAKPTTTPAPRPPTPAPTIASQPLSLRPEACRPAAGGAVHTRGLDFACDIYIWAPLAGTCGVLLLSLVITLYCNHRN
Assay: flow cytometry on HCT116-TT3 cells

B1 and B2 are within 1.5-fold of each other in EC50: 0.464 nM for the first, 0.47 nM for the second.

B3 and B4 are within 1.5-fold of each other in EC50: 1.04 nM for the first, 0.908 nM for the second.

Going from B5 to B6, the EC50 rises from 0.127 nM to 0.248 nM (2-fold).

Going from B7 to B8, the EC50 rises from 0.336 nM to 0.523 nM (1.6-fold).

Target: TT3 antigen (ELISA coating antigen)
Assay: ELISA, plate-coated TT3 antigen
Protocol: The activity of the prepared humanized antibodies was assessed by ELISA as follows: The TT3 antigen was diluted to 0.5 g/mL using a coating solution and added to a 96-well plate at 100 L/well, and the plate was incubated overnight at 4° C. The plate was washed with PBST. Then 200 μL of an antibody blocking solution was added to each well, and blocking was performed at 37° C. for 2 h. The plate was washed with PBST. Different antibodies (initial concentration: 100 nM; serially diluted in a 1:6 ratio) were added at 100 L/well, and the plate was incubated at 37° C. for 2 h. The plate was washed with PBST. An HRP-bound goat anti-human/mouse IgG antibody was added at 100 μL/well, and the plate was incubated at 37° C. for 1 h. The plate was washed with PBST, and TMB was added at 100 L/well. Color development was performed at 37° C. for 10-20 min, and 50 µL of 2 M sulfuric acid was added to each well to stop the reaction. OD readings were taken at a wavelength of 450 nm.

B9 and B10 are within 1.5-fold of each other in EC50: 0.0105 nM for the first, 0.0104 nM for the second.

First: B11
Second: B12
The EC50 of the first is 6.3-fold lower: 0.014 nM for the first, 0.0878 nM for the second. The first is the more potent here.

Target: TT3 labeling polypeptide on cells
Assay: flow cytometry on SK-HEP-1-TT3 cells

Going from B9 to B10, the EC50 falls from 1.53 nM to 0.546 nM (2.8-fold). The second is the more potent here.

B11 gave an EC50 of 0.738 nM.

Target: T1, CD3 on Jurkat cells and on human T cells (human, UniProt P07766 23-207)
T1 construct: whole, on cells; also called CD3 end; CD3 antigen
T1 sequence (P07766 23-207): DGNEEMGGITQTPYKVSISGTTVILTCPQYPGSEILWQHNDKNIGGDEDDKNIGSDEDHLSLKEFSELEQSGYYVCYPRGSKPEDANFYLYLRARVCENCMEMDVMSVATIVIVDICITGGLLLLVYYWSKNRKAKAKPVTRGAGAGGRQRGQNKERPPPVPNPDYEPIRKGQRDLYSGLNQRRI
Assay: flow cytometry on Jurkat cells
Protocol: Jurkat cells were plated, washed with a FACS buffer, and centrifuged at 1200 rpm for 3-5 min. Then diluted antibodies with different concentrations were added at 100 L/well. The cells were incubated at 4° C. for 0.5 h, centrifuged at 1200 rpm for 3-5 min, and washed with a FACS buffer. Then a diluted goat anti-human IgG (FITC, Abcam/ab97224) antibody was added. The cells were incubated at 4° C. for 0.5 h, centrifuged at 1200 rpm for 3-5 min, washed with a FACS buffer, and resuspended in 50 μL of a FACs buffer, and assays were performed using a flow cytometer.

Compared with B1, B2 is 6.1-fold lower in EC50: 111 nM for the first, 18.2 nM for the second. The second is the more potent here.

Compared with B3, B4 is 2.2-fold lower in EC50: 71.4 nM for the first, 32.6 nM for the second.

Going from B5 to B6, the EC50 rises from 49.4 nM to 143 nM (2.9-fold). The first is the more potent here.

Compared with B7, B8 is 2.1-fold lower in EC50: 169 nM for the first, 80.6 nM for the second.

Target: TT3 labeling polypeptide on cells
Assay: flow cytometry (as for Table 1)

B13: binds.
B14: binds.
B15: binds.
B16: binds.
B17: binds.
B18: binds.
B19: binds.

Target: TT3 labeling polypeptide on cells
Assay: flow cytometry on MC38-TT3 cells

Going from B9 to B10, the EC50 falls from 2.33 nM to 1.2 nM (1.9-fold). The second is the more potent here.

B11 gave an EC50 of 0.588 nM.

Target: TT3 labeling polypeptide on cells
Assay: flow cytometry on HCT116-TT3 cells
Remark: another data set of the same source

Going from B9 to B10, the EC50 falls from 0.958 nM to 0.568 nM (1.7-fold). The second is the more potent here.

With B11 the EC50 was 0.692 nM.
